Results taken from US20060030524A1, “Treatment of systemic lupus erythematosus by down-regulating the autoimmune response to autoantigens” (Yeda Research and Development Co. Ltd., priority 1998, published 2006).

What was measured:
[1] = system: histones; assay: ELISA of sera of Ab1-immunized mice for anti-histone antibodies; assay type: in vivo; settings: mice immunized with Ab1, bled two weeks after second boost
Method: (§1) ELISA assays were conducted in 96-well Maxisorp plates (Nunc, Roskilde, Denmark), which were coated with 10 μg test antigen per ml in PBS. After washing and blocking with 1% BSA in PBS for one hour at 37° C., diluted test sera (0.1 ml per well) was added for one hour at 37° C., followed by one hour incubation with goat anti-mouse IgG Fc specific, or IgG-isotype specific secondary antibodies conjugated to alkaline phosphatase, diluted 1:5000 (Jackson, Philadelphia, Pa.). A substrate solution containing 0.6 mg/ml of p-nitrophenylphosphate (Sigma, Rehovot, Israel) in diethanolamine-H2O, pH 9.8, was added, and the plates were read at 405 nm.
(§2) For anti-DNA ELISA, a secondary antibody conjugated to horseradish peroxidase, and as substrate 1 mg/ml ABTS in 0.2 M citric acid, 0.2 M Na2HP04, and 3% H202 (all from Sigma) was used. The test antigens used were (Fab) 2 fragments of Ab2 anti-PAb-421, which were prepared as described (Harlow et al, 1988), recombinant p53, the p53 peptide epitope of PAb-421, histones or, after pre-coating with methylated BSA, calf thymus DNA (all from Sigma). All antibody titers are shown as the O. D. produced by the test sera at a dilution of 1:100. Dots represent individual sera, bars represent the median of each group.

[2] = system: native, histone-free DNA of Crithidia luciliae; assay: Crithidia luciliae assay of sera of Ab1-immunized mice; assay type: in vivo; settings: sera of BALB/c mice immunized to the Ab1
Method: Slides with Crithidia were purchased from Immco (Buffalo, N.Y.) and incubated with the test sera according to the manufacturer's protocol.
Test sera were then examined for binding to DNA using the Crithidia luciliae assay, which detects antibodies—to native, histone-free DNA exposed at the base of the Crithidia flagellum. Both BALB/c and C57BL/6 mice immunized to […] or PAb-248 were negative for anti-DNA antibodies in the Crithidia assay, as were C57BL/6 mice immunized to PAb-421. […] The finding of positive reactivity in the Crithidia assay correlates with the clinical disease seen in the BALB/c mice. The Crithidia luciliae assay is used clinically for its diagnostic specificity for lupus in humans (Aarden et al, 1975).

[3] = system: BALB/c and C57BL/6 mice; assay: Induction of SLE-like disease by Ab1 immunization (proteinuria, histology, leukocyte counts); assay type: in vivo
Excerpt: Paraffin sections of tissue samples were either stained with hematoxylin and eosin, or immunostained with a peroxidase-labeled anti-mouse-IgG antibody (Jackson, Philadelphia, Pa.) and DAB (Sigma) according to the manufacturer's instructions.
Proteinuria was detected with Albustix strips (Bayer, Slough, UK). Leukocytes were counted from heparinized blood following 10-fold dilution in 1% acetic acid.

[4] = system: Ab2 of immunized C57BL/6 mice cross-reactive to PAb-246 and PAb-421; assay: Absorption of Ab2 cross-reactivity by preincubation with anti-p53 antibodies; assay type: binding; settings: sera of immunized C57BL/6 mice preincubated with the antibody
Method: FIG. 2 is a graph showing cross-reactivity of C57BL/6 mouse Ab2 to PAb-246 and PAb-421. […] The mean percent inhibition (+SD) of the reactivity to PAb-246 or PAb-421 by preincubation is shown.
The Ab2 cross-reactivity of the C57BL/6 mice seemed to be limited to PAb-246 and PAb-421. To confirm the Ab2 cross-reactivity between PAb-246 and PAb-421, tests were conducted to determine whether preincubation with either of the anti-p53 antibodies could absorb out the cross-reactivity. […] The mean percent inhibition (+SD) of the reactivity to PAb-246 or PAb-421 by preincubation is shown.

[5] = system: (Fab)2 fragments of the Ab1 anti-p53 antibodies; assay: ELISA of sera of Ab1-immunized mice for Ab2 anti-idiotypic antibodies; assay type: in vivo
Method: as §1
as §2, with “Dots represent individual sera, bars represent the median of each group.” left out
To learn whether both strains of mice responded to the Ab1 immunization by making Ab2 anti-idiotypic antibodies, the reactivity of their sera to the (Fab)2 fragment of the Ab1 anti-p53 antibodies was determined.

[6] = target: T1, p53 peptide epitope of PAb-421 (364-383 of SEQ ID NO:1) (Mus musculus, UniProt P02340); assay: ELISA of sera of Ab1-immunized mice for Ab3 to the p53 peptide epitope of PAb-421; assay type: in vivo
T1 construct: made in house; host or cells: chemical synthesis (Abimed AMS 422)
T1 sequence (P02340 364-383 limits assumed): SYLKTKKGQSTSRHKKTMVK
Method: (§3) E. coli BL21 (DE3) cells were transformed with the T7 expression vector containing mouse p53 DNA (Shohat-Foord et al, 1991). P53 was purified as described (Wolkowicz et al, 1995). All peptides, including the p53 peptide epitope of PAb-421 ([…]) (residues 364-383 of SEQ ID NO:1) were prepared using an automated synthesizer (Abimed AMS 422; Langenfeld, Germany) according to the manufacturer. Peptide purity was tested by analytical reverse phase HPLC and mass spectroscopic analysis.
ELISA assays were conducted in 96-well Maxisorp plates (Nunc, Roskilde, Denmark), which were coated with 10 μg test antigen per ml in PBS. […] A substrate solution containing 0.6 mg/ml of p-nitrophenylphosphate (Sigma, Rehovot, Israel) in diethanolamine-H2O, pH 9.8, was added, and the plates were read at 405 nm.
Because the two mouse strains differed in their Ab1 response to PAb-421, it was conceivable that they also might differ in their Ab3 response to this Ab1 antibody. The specificity of the Ab3 response was analyzed by probing test sera for antibodies to the C-terminal peptide epitope of p53 that is recognized by the inducing PAb-421 (amino acids 364-383 of SEQ ID NO:1).

[7] = system: p53-responsive element oligonucleotide; assay: Band shift assay of sera of Ab1-immunized mice; assay type: in vivo; settings: sera of BALB/c mice immunized to the Ab1
[8] = target: T2, recombinant p53 (Mus musculus, UniProt P02340); assay: ELISA of sera of Ab1-immunized mice for Ab3 anti-p53 antibodies; assay type: in vivo
T2 construct: made in house; host or cells: E. coli BL21 (DE3)
T2 sequence (P02340 whole entry): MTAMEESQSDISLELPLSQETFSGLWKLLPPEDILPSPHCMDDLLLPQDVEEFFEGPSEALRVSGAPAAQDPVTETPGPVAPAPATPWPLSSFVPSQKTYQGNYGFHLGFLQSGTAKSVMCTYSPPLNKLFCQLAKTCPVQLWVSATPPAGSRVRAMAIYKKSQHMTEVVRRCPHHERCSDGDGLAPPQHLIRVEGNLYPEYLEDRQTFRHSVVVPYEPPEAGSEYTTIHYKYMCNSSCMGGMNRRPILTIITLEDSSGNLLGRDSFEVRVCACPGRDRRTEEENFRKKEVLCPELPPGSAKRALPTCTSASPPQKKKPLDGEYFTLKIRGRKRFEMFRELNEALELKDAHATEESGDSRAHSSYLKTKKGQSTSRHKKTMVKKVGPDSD
Method: as §3, §1
To test whether immunization to Ab1 could induce Ab3, immunized mice were assayed for antibodies to p53. […] However, Ab1 antibodies PAb-246 and PAb-421 induced a stronger Ab3 anti-p53 response in the BALB/c strain than they did in the C57BL/6 strain.

[9] = system: single-stranded calf thymus DNA; assay: Anti-DNA ELISA of sera of Ab1-immunized mice; assay type: in vivo; settings: sera of BALB/c mice immunized with the Ab1
Method: as §2

induction of Ab3 anti-p53 antibodies (FIG. 4A) ([8]; BALB/c mice): make anti-p53 antibodies | induction of Ab3 anti-p53 antibodies (FIG. 4A) ([8]; C57BL/6 mice): make anti-p53 antibodies
B1: PAb-421: monoclonal antibody (Ab1) against the C-terminal DNA-binding domain of murine p53; VH SEQ ID NO:2, VL SEQ ID NO:3 (antibody, listed as Mus sp., V domains shown)
VH: QVKLQESGAELVRSGASVKLSCTASGFNIKDYYMHWVKQRPEQGLEWIGWIDPENGDTEYAPKFQGKATMTADTSSNTAYLQLSSLASEDTAVYYCNFYGDALDYWGQGTTVTVSS
VL: DIQLTQSPLTLSVTIGQPASISCKSSQSLLDSDGKTYLNWLLQRPGQSPKRLIYLVSKLDSGVPDRFTGSGSGTDFTLKINRVEAEDLGVYYCWQGTHSPLTFGAGTKLK
modifications: BINDING (26)..(35) Complementary Determining Region; BINDING (24)..(39) Complementary Determining Region
mice that developed significant titers of anti-histone antibodies [1]: About 30% | anti-DNA antibodies in the Crithidia assay [2]: produced anti-DNA antibodies detectable by the Crithidia assay | immunized mice that exhibited proteinuria ([3]; 80 BALB/c mice immunized with Ab1): about 95% | development of lupus after Ab1 immunization ([3]; BALB/c mice): develop a lupus-like disease | mice leukopenic (<4000 leukocytes per ml) and lymphopenic (<1200 lymphocyte per ml) ([3]; BALB/c mice immunized with Ab1): Seven out of ten | development of lupus after Ab1 immunization ([3]; C57BL/6 mice): did not develop disease | absorption of Ab2 cross-reactivity between PAb-246 and PAb-421 by preincubation (FIG. 2) [4]: absorbed out significantly | Ab2 anti-idiotypic response, specificity (FIG. 1) ([5]; BALB/c mice): made antibodies specific to PAb-421 | Ab2 anti-idiotypic response, specificity (FIG. 1) ([5]; C57BL/6 mice): cross-reacted to both PAb-246 and PAb-421 | Ab3 antibodies to the p53 peptide epitope of PAb-421 (FIG. 5) ([6]; BALB/c mice): made antibodies to the peptide epitope of PAb-421 | Ab3 antibodies to the p53 peptide epitope of PAb-421 (FIG. 5) ([6]; C57BL/6 mice): did not make antibodies to the C-terminal p53 peptide | anti-DNA Ab2 to the p53-responsive element (band shift) [7]: did not make such anti-DNA antibodies | anti-DNA reactivity to single stranded calf thymus DNA (FIG. 3) [9]: High anti-DNA reactivity
